# Measurements taken from paper PMC3726423.
# B1: Pab21 H/ACA sRNA (structured_RNA)
# RNA: GGGGAUGGGCCCGGCUCCCGCCCUCUCCGGGGAAUCGUGAACCGGGGGUUCCGGCCGGGCCUACAGU
# B2: Pab91 H/ACA sRNA (structured_RNA)
# RNA: GGGUAAUGCCCCUCCCCUCUCACACCUCCGGGAUCAGUGACCGGAGGGCGGUCGGGGAGGGGACACCU
# What was measured:
# L7Ae [1] = molecular target: T1, L7Ae (Pyrococcus abyssi, UniProt P62008 1-123); test: footprinting (Pb2+); K-loop KTa/KTb protected; A34-U35 enhanced; EMSA: 150 mM KCl, 1.5 mM MgCl2, 0.2 mM EDTA, 20 mM HEPES pH 7.9, 65 C 10 min, 50 fmol sRNA, 200 nM proteins (Kd: 50-400 nM aCBF5); fluorescence: 300 mM NaCl, 25
# L7Ae [2] = molecular target: T1, L7Ae; test: footprinting (Pb2+); K-loop KTa/KTb protected; EMSA: 150 mM KCl, 1.5 mM MgCl2, 0.2 mM EDTA, 20 mM HEPES pH 7.9, 65 C 10 min, 50 fmol sRNA, 200 nM proteins (Kd: 50-400 nM aCBF5); fluorescence: 300 mM NaCl, 25
Binder,binding result (L7Ae [1]),binding result (L7Ae [2])
B1,binds,
B2,,binds
